The values below come from article PMC2704239.

What all share (test): co-IP
For experiment [1], the target named is FLAG-tagged Mili N-terminal domain (mouse).
The target of experiment [2] is FLAG-tagged Mili region containing the PAZ, Mid, and Piwi domains (mouse).
Experiment [3] has as its target T1, myc-tagged Tdrd2, Q80VL1.
T1 chain: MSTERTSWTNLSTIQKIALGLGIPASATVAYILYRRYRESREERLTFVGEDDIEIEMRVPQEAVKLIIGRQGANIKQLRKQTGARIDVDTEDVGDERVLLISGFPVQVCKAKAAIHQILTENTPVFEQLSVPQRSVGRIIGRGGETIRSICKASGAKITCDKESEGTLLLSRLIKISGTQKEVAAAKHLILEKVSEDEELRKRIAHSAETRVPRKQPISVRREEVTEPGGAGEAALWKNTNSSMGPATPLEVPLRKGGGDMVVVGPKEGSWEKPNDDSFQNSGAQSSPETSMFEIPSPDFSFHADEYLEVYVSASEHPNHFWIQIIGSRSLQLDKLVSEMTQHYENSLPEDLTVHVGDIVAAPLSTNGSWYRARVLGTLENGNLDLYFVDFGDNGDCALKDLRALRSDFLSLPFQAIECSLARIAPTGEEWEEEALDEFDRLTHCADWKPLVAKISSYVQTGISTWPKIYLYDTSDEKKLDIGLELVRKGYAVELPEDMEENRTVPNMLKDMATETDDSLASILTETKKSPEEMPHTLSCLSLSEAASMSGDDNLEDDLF
The conditions noted are these: remark: other sources report otherwise.

B1: myc-tagged Tdrd1 (natural protein)
chain: MMPRNNLEASTCKMAEPFNFEKKESKPPPQDPLRSPVAQHNHPTFRLKSPENGNTKNNFLLCEQNKQYLASQEDSSVVSSNPAVVNGEVGGSKGDRKPPPTGNPVSPLSLGNSSPPNQVKTKPSSNVTPEKSKKSHKLFENALSVNNPALFNSLGPPLRSTTCHRCGLFGSLRCSQCKQTYYCSTACQRRDWSSHSTICRPVQQSLNKLEDNKSPFETKAIEVKSEVDCPPGVTKEITAGAERVMFSDLRSLQLKKTMEIKGTVTEFKHPSNFYIQLYSSEVLENMNQLSTSLKETYANVVPEDGYLPVKGEVCVAKYTVDQTWNRAIVQAVDVLQRKAHVLYIDYGNEEMIPIDSVHPLSRGLDLFPPSAIKCCVSGVIPTAGEWSEGCVAAVKALLFEQFCSVKVMDILEEEVLTCAVDLVLQSSGKQLDHVLVEMGYGVKPGEQSSTEQSVDHSALEDVGRVTVESKIVTDRNALIPKVLTLNVGDEFCGVVAHIQTPEDFFCQQLQSGHKLAELQESLSEYCGHVIPRSDFYPTIGDVCCAQFSEDDQWYRASVLAYASEESVLVGYVDYGNFEILSLKRLCPIIPKLLDLPMQALNCVLAGVKPSLGIWTPEAVCVMKEMVQNRMVTVRVVGMLGTRALVELIDKSVAPHVSASKALIDSGFAIKEKDVADKGSSMHTASVPLAIEGPAEALEWTWVEFTVDETVDVVVCMMYSPGEFYCHFLKDDALEKLDDLNQSLADYCAQKPPNGFKAEIGRPCCAFFSGDGNWYRALVKEILPSGNVKVHFVDYGNVEEVTTDQLQAILPQFLLLPFQGMQCWLVDIQPPNKHWTKEATARFQACVVGLKLQARVVEITANGVGVELTDLSTPYPKIISDVLIREQLVLRCGSPQDSLMSRPANQHKQIDSHRVQASPSAEQWKTMELPVNKTIAANVLEIISPALFYAIPSEMSENQEKLCVLAAELLEHCNAQKGQPAYRPRTGDACCAKYTNDDFWYRAIVLETSESDVKVLYADYGNIETLPLSRVQPIPASHLELPFQIIRCSLEGPMELNGSCSQLVMELLRNAMLNQSVVLSVKAISKNVHAVSVEKCSENGMINIAENLVMCGLAENLTSKRKSASTKEIPHSRDCCCTELQKQIEKHEQILLFLLNNPTNQSKFTEMKKLLRS
Consider B1, for which, in experiment [1], the co-IP of Tdrd1 as percent of full-length Mili is 76%. Moreover, the binding as percent of the wildtype level in experiment [2] worked out at 11%.

B2: FLAG-tagged Mili, Q8CDG1 1-971 (natural protein)
chain: MDPVRPLFRGPTPVHPSQCVRMPGCWPQAPRPLEPAWGRAGPAGRGLVFRKPEDSSPPLQPVQKDSVGLVSMFRGMGLDTAFRPPSKREVPPLGRGVLGRGLSANMVRKDREEPRSSLPDPSVLAAGDSKLAEASVGWSRMLGRGSSEVSLLPLGRAASSIGRGMDKPPSAFGLTARDPPRLPQPPALSPTSLHSADPPPVLTMERKEKELLVKQGSKGTPQSLGLNLIKIQCHNEAVYQYHVTFSPSVECKSMRFGMLKDHQSVTGNVTAFDGSILYLPVKLQQVVELKSQRKTDDAEISIKIQLTKILEPCSDLCIPFYNVVFRRVMKLLDMKLVGRNFYDPTSAMVLQQHRLQIWPGYAASIRRTDGGLFLLADVSHKVIRNDSVLDVMHAIYQQNKEHFQDECSKLLVGSIVITRYNNRTYRIDDVDWNKTPKDSFVMSDGKEITFLEYYSKNYGITVKEDDQPLLIHRPSERQNNHGMLLKGEILLLPELSFMTGIPEKMKKDFRAMKDLTQQINLSPKQHHGALECLLQRISQNETASNELTRWGLSLHKDVHKIEGRLLPMERINLRNTSFVTSEDLNWVKEVTRDASILTIPMHFWALFYPKRAMDQARELVNMLEKIAGPIGMRISPPAWVELKDDRIETYIRTIQSLLGVEGKIQMVVCIIMGTRDDLYGAIKKLCCVQSPVPSQVINVRTIGQPTRLRSVAQKILLQMNCKLGGELWGVDIPLKQLMVIGMDVYHDPSRGMRSVVGFVASINLTLTKWYSRVVFQMPHQEIVDSLKLCLVGSLKKYYEVNHCLPEKIVVYRDGVSDGQLKTVANYEIPQLQKCFEAFDNYHPKMVVFVVQKKISTNLYLAAPDHFVTPSPGTVVDHTITSCEWVDFYLLAHHVRQGCGIPTHYICVLNTANLSPDHMQRLTFKLCHMYWNWPGTIRVPAPCKYAHKLAFLSGQILHHEPAIQLCGNLFFL
In experiment [3], B2 gave a fold weaker interaction than with Tdrd1 of 20 fold.
